Source: patent publication US20260274928A1 (VIR BIOTECHNOLOGY, published 2026)
Like-named read-outs stand apart in the source and are kept apart here.

Columns and labels:
SARS-CoV S glycoprotein [1] = target: T1, SARS-CoV S glycoprotein (SARS-CoV, UniProt P59594 14-1255); experiment: cell-based or functional assay
[2] = target: SARS-CoV-2 CH.1.1 S glycoprotein (SARS-CoV-2 CH.1.1); experiment: cell-based or functional assay
[3] = target: T2, SARS-CoV-2 Wuhan-Hu-1 RBD (SARS-CoV-2 Wuhan-Hu-1, UniProt P0DTC2 328-531); experiment: RBD binding affinity (SPR, see Example 5)
T2 construct: range 328-531

SARS-CoV S glycoprotein [4] = target: T1, SARS-CoV S glycoprotein; experiment: cell-based or functional assay; remark: listed apart in the source
SARS-CoV S glycoprotein [5] = target: T1, SARS-CoV S glycoprotein; experiment: cell-based or functional assay; remark: listed apart in the source
[6] = target: SARS-CoV-2 mouse/rabbit Fc-tagged RBD (SARS-CoV-2, UniProt P0DTC2 319-541)
[7] = target: T2, SARS-CoV-2 Wuhan-Hu-1 RBD; experiment: BLI, Fab on immobilized Wuhan-Hu-1 RBD (FIG. 25)

Binder	IC50 (SARS-CoV S glycoprotein [1]) [ng·mL]	IC50 [2] [µg/mL]	Kd [3] [nM]	IC50 (read off the curve) [6] [µg/mL]	also measured
S2V29-v37.2 (antibody, V domains shown) VH: EVQLVESGGSVVQPGRALRLSCAASGITFSSFGMYWVRQAPGKGLEWLGYIAYDGSDTYYADSVKGRFTISRDNSKNTLYLQMNSLRIEDTAVYYCAKDYYPLLSYYYGLDVWGQGTTVTVSS VL: QSVLTQPRSVSGSPGQSVTISCTGTSSDVGAYNYVSWYQQHPGKAPKFMIYDVDQRPSGVPDRFSGSKSGNTASLIISGLQAEDEADYYCSSYAGSYIWVFGGGTQLTVL	6	0.0089	0.16		FC vs v1.2 (SARS-CoV S glycoprotein [1]): 116 fold; FC vs S2V29-v1.2 [2]: 1.3 fold; fold improvement in neutralization (SARS-CoV S glycoprotein [4]): 100 fold; FC IC50 par/IC50 Var (SARS-CoV S glycoprotein [5]): 21.7 fold; IC50 (SARS-CoV S glycoprotein [5]): 0.0077 µg/mL
S2V29-v1.2 (antibody, V domains shown) VH: EVQLVESGGSVVQPGRALRLSCAASGITFSSFGMYWVRQAPGKGLEWLGVIAYDGSNTYYADSVKGRFTISRDNSKNTLYLQMNSLRIEDTAVYYCAKDYYPLLSYYYGLDVWGQGTTVTVSS VL: QSVLTQPRSVSGSPGQSVTISCTGTSSDVGAYNYVSWYQQHPGKAPKFMIYDVDQRPSGVPDRFSGSKSGNTASLIISGLQAEDEADYYCSSYAGSYIWVFGGGTQLTVL	689	0.0112	< 0.02		
S2V29-v1.1 (antibody, V domains shown) VH: EVQLVESGGSVVQPGRALRLSCAASGITFSSFGMYWVRQAPGKGLEWLGVIAYDGSNTYYADSVKGRFTISRDNSKNTLYLQMNSLRIEDTAVYYCAKDYYPLLSYYYGLDVWGQGTTVTVSS VL: QSVLTQPRSVSGSPGQSVTISCTGTSSDVGAYNYVSWYQQHPGKAPKFMIYDVDQRPSGVPDRFSGSKSGNTASLIISGLQAEDEADYYCCSYAGSYIWVFGGGTQLTVL				~0.02	
S3I2 (antibody, V domains shown) VH: EVQLVETGGGLIQPGGSLTLSCAASGLVVSYNYMTWVRQAPGKGLEWLSVIYAGGSTFYADSVKGRFTVSRDNSNNTLYLQMNNLRAEDTAVYFCARWGQVRFTSEEAYYKYGLDVWGQGTTVTVSS VL: DIQLTQSPSFLSASVGDRVTITCRASQGISNYLAWYQQRPGKAPKLLIFTASTLQSGVSSRFSGSGSGTEFTLTISSLQPEDLATYYCQQLNSNLQGTFGQGTRVEIK				~0.03	
S2K146 Fab (Fab, V domains shown) VH: QVQLVESGGVVVQPGGSLRLSCAASGFTFHDHTMHWVRQAPGKGLEWVSLITWNGGTIHYSDSVKGRFTISRDNSKNSLYLQMNSLRTEDTALYYCAKDLGRGGWYLPSDAWGQGTLVTVSS VL: not shown					binding result [7]: binds
S3L17 (antibody, V domains shown) VH: EVQLVESGGGLVQPGGSLRLSCAASEIIVSSNYMNWVRQAPGKGLEWVSVIYAGGSTFYADSVRGRFTISRDNSKNTLYLQMNSLRPDDTAIYYCARDLGPWGMDVWGQGTTVTVSS VL: DIQMTQSPSSLSASVGDRVAITCRASHGINNDLAWYQQKPGKVPKLLIYAASTLQSGVPSRFSGSGSGTDFTLTISSLQPEDVATYYCQHYSSDPRFTFGPGTKVDIK			0.07	~0.02	
